Source: patent US20230338424A1 (LENTIGEN TECHNOLOGY, published 2023)
Values belong to the binder of their own block, whether it stands above or below them.

Experiments:
recombinant human CD123 = molecular target: T1, recombinant human CD123 (human, UniProt P26951 19-305, limits assumed); assay: ELISA, soluble scFv on coated recombinant human CD123
T1 construct: also called coated CD123
T1 sequence (looked up): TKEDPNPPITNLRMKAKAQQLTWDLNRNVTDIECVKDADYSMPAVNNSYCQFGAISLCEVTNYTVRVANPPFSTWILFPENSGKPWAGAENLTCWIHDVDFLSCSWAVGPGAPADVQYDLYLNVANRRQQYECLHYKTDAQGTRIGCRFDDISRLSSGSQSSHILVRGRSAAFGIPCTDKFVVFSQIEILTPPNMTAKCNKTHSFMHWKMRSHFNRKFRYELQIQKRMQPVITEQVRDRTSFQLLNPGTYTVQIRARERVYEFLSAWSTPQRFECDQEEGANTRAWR
Experimental: After each round of incubation, the wells were washed 10 times for the first round, 20 times for the second round and 30 times for the third round with phosphate-buffered saline containing 0.05% Tween 20 (PBST) to remove nonspecifically bound phage. Antigen binding phage were eluted with 100 µl 10 µg/ml Trypsin diluted in PBS and mixed with TG1 competent cells for 1 hour at 37° C., and the phage was amplified from the infected cells and used in the next round of biopanning. After the third round of biopanning, 376 clones were randomly picked from the infected TG1 cells and each inoculated into 150 µl 2YT medium containing 100 µg/ml ampicillin and 200 mM glucose in 96-well plates by using the automated colony picking system (Molecular Devices, QPix 460) and were incubated at 37° C. overnight in a shaker at 300 rpm. Next day 10 µl of the bacterial cultures were used to inoculate 150 µl 2YT medium containing 100 µg/ml ampicillin and 50 µM isopropyl-β-d-thiogalactopyranoside in 96-well plates and the plates were further incubated at 30° C. overnight in a shaker at 300 rpm. […] The supernatants were incubated for 1 h at room temperature with recombinant human CD123 coated at 30 ng per well in 384-well plates and washed three times with PBST, (after overnight incubation at 4° C. it was blocked with 2% BSA in PBS containing 0.05% Tween 20 and washed three times with PBS containing 0.05% Tween 20.) After incubation the 3,3,′5,5′-tetramethylbenzidine (TMB) substrate was added, and solution absorbance at 450 nm (A450) measured. Clones that bound to CD123 with a signal to noise ratio of >5 were selected for further characterization.

[1] = molecular target: T2, CD123 on cells (MOLM-13, MOLM14, KG-1a, RS4;11-CD123) (human, UniProt P26951 19-378); assay: flow cytometry, soluble scFv on CD123-positive MOLM-13 cells, anti-His-APC
T2 construct: whole, on cells; also called CD123 antigen; CD123/IL-3 receptor alpha
Experimental: Identified binders from ELISA were tested on CD123-positive the cell line MOLM-13. The CD123-negative cell line Jeko-1 CD20KO eGFP served as negative control. For positive control staining REAL270 (alpha CD123) and REAL116 (alpha CD123) antibodies were used, respectively. Soluble scFvs were expressed as described above. The bacterial pellets were disrupted by incubation with 0.3 mL TE buffer (10 mM Tris-HCl containing 1 mM EDTA, pH 8.0 at 37° C.)/well at 37° C., 250 rpm for 18 hours. Cultures were centrifuged at 4000xg, RT for 20 minutes and the supernatant was transferred to a fresh microtiter plate.
For cell staining cell number and viability were determined at MACSQuantX. A cell suspension containing needed cell number were centrifuged at 300xg, 4° C. for 10 minutes and supernatant was discarded. Cells are resuspended by addition of PEB buffer (1xPBS + 2 mM EDTA, 0.5% BSA pH 7.4 at RT) to a concentration of 1E+06 cells/mL. One hundred thousand cells per cell line were added to each well of 96-well V-bottom plate and the plate were centrifuged at 1300xg, 4° C. for 2 minutes. The supernatant was discarded, cells were resuspended in 100 µL of supernatant from periplasmatic preparation and cells were incubated for 10 minutes on ice. Cells were washed by addition of 100 µL PEB followed by centrifugation (1300 x g, 4° C. for 2 minutes), twice. Fifty microliter of secondary (Anti-His-APC conjugated antibody) or REAL antibody (diluted 1:50 in PEB buffer) per well were added and the plate is incubated for 10 minutes in the dark at 4° C. Cells were washed by addition of 100 µL PEB followed by centrifugation (1300xg, 4° C. for 2 minutes), twice. Propidium iodide was diluted 1:100 in Fixing solution (1xPBS + 2 mM EDTA + 1% PFA + 0.3% MeOH + 3% NaAzide) and washed cells were resuspended in 50 µL of the mixture. Signals are measured at MACSQuantX. Signals were analyzed using FlowLogic software. Statistical analysis was performed with VORTEX software.

[2] = molecular target: T3, recombinant human CD123-Fc (human, UniProt P26951 19-305, limits assumed); assay: flow cytometry, CAR T cells stained with recombinant IL3R-alpha Fc-tagged, anti-Fc AF647
T3 construct: Treated as one molecule; also called CD123-Fc peptide (Novoprotein); recombinant IL3R-alpha Fc-tagged; not shown: Fc tag
T3 sequence (looked up): T1 sequence (looked up)
Experimental: Half million CAR T cells were washed two times in cold AutoMACS buffer supplemented with 0.5% bovine serum albumin (Miltenyi Biotec, Bergisch Gladbach, Germany) and stained with 2.5 ug/ml CD123-Fc peptide (Novoprotein, Summit, NJ), followed by anti Fc-AF647 conjugate (Jackson ImmunoResearch, West Grove, PA). The 7-Aminoactinomycin D staining (7-AAD, BD Biosciences, San Jose, CA) was added to exclude dead cells. Non-transduced cells (UTD) were used as a negative control. Cells were washed twice with AutoMACS buffer supplemented with 0.5% bovine serum albumin, resuspended in 200 ul staining buffer and acquired by flow cytometry. Flow cytometric analysis was performed on a MACSQuant® 10 Analyzer (Miltenyi Biotec), and data plots were generated using FlowJo software (Ashland, OR).
Lentiviral vectors encoding the CD123 CAR constructs were used for CAR transduction into human primary T cells at multiplicity of infection (MOI) of 40. CAR surface expression of transduced T cells by flow cytometry using recombinant IL3R-alpha Fc-tagged, followed by staining with anti-Fc Alexa Flour 647.

T2 sequence (P26951 19-378): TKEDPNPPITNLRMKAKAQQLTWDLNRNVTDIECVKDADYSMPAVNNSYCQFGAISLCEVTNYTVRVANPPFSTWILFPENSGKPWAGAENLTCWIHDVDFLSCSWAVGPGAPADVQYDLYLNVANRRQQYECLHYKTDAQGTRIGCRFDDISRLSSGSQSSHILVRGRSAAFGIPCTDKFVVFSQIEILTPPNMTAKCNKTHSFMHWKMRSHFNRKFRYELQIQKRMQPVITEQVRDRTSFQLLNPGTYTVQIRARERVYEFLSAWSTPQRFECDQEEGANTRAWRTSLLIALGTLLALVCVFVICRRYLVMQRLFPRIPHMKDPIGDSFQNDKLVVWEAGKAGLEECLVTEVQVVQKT

B1: scFv MB40-H08 (scFv)
scFv: QVQLVQSGAEVKKPGSSVKVSCKASGGTFSSYAISWVRQAPGQGLEWMGGIIPIFGTANYAQKFQGRVTITADESTSTAYMELSSLRSEDTAVYYCARNEWYSYYYYYMGVWGKGTTVTVSSGGGGSGGGGSGGGGSQSALTQPASVSGSPGQSITISCTGTSSDVGGYNYVSWYQQHPGKAPKLMIYEVSNRPSGVSNRFSGSKSGNTASLTISGLQAEDEADYYCSSYTSSSTLVVFGGGTKLTVL
notes: Soluble scFv carried c-myc and His tags; also called CD123 (MB40-H08)
binding result (recombinant human CD123): binds
binding result [1]: binds

B2: scFv MB44-H01 (scFv)
scFv: QVQLVQSGAEVKKPGSSVKVSCKASGGTFSSYAISWVRQAPGQGLEWMGGIIPIFGTANYAQRFQGRVTITADESTSTAYMELSSLRSEDTAVYYCARGLGTSYYYYYMDVWGKGTTVTVSSGGGGSGGGGSGGGGSQSVLTQPPSASGSPGQSVTISCTGTSSDVGGYNYVSWYQQHPGKAPKLMIYEVSNRPSGVSNRFSGSKSGNTASLTISGLQAEDEADYYCSSYTSSSTPVVFGGGTKLTVL
notes: Soluble scFv carried c-myc and His tags; also called CD123 (MB44-H01)
binding result (recombinant human CD123): binds
binding result [1]: binds

B3: CAR D0127 CD123 MB35-E02 CD8 BBz (other)
chain: QVQLVQSGAEVKKPGSSVKVSCKASGGTFSSYAISWVRQAPGQGLEWMGGIIPIFGTANYAQKFQGRVTITADESTSTAYMELSSLRSEDTAVYYCARHGGMATMLPYGAFDIWGQGTMVTVSSGGGGSGGGGSGGGGSDIRLTQSPSSLSASVGDRVTITCRASQGISSYLNWYQQKPGKAPKLLIYAASRLQSGVPSRFSGSGSGTDFTLTISSLQPEDFATYYCQQSYSTSLTFGGGTKVEIKAAATTTPAPRPPTPAPTIASQPLSLRPEACRPAAGGAVHTRGLDFACDIYIWAPLAGTCGVLLLSLVITLYCKRGRKKLLYIFKQPFMRPVQTTQEEDGCSCRFPEEEEGGCELRVKFSRSADAPAYQQGQNQLYNELNLGRREEYDVLDKRRGRDPEMGGKPRRKNPQEGLYNELQKDKMAEAYSEIGMKGERRRGKGHDGLYQGLSTATKDTYDALHMQALPPR
notes: Chimeric antigen receptor on transduced human primary T cells; also called EF-1a-CD123 MB35-E02 CD8 BBz
binding result [2]: binds

B4: scFv MB36-A05 (scFv)
scFv: QVQLVQSGAEVKKPGSSVKVSCKASGGTFSSYAISWVRQAPGQGLEWMGGIIPIFGTANYAQKFQGRVTITADKSTSTAYMELSSLRSEDTAVYYCARGGRNSYYYYYMDVWGKGTTVTVSSGGGGSGGGGSGGGGSQSALTQPASVSGSPGQSITISCTGTSSDVGGYNYVSWYQQHPGKAPKLMIYEVSNRPSGVSNRFSGSKSGNTASLTISGLQAEDEADYYCSSYTSSSPVVFGGGTKLTVL
notes: Soluble scFv carried c-myc and His tags; also called CD123 (MB36-A05)
binding result (recombinant human CD123): binds
binding result [1]: binds

B7: scFv MB42-E02 (scFv)
scFv: QVQLVQSGAEVKKPGASVKVSCKASGYTFTSYGISWVRQAPGQGLEWMGWISAYNGNTNYAQKLQGRVTMTTDTSTSTAYMELRSLRSDDTAVYYCARGAYYDFWSGYSWFDPWGQGTLVTVSSGGGGSGGGGSGGGGSQSVLTQPPSVSVAPGQTARIPCGGNNIGSKGVHWYQQKSGQAPVMVVYDDSDRPSGIPERFSGSNSGNTATLTISRVEAGDEADYYCQVWDSSGDLVLFGGGTKLTVL
notes: Soluble scFv carried c-myc and His tags; also called CD123 (MB42-E02)
binding result (recombinant human CD123): binds
binding result [1]: binds

More lines, now with the values ahead:

binding result (recombinant human CD123): binds
binding result [1]: binds
B5: scFv MB40-F08 (scFv)
scFv: QVQLVQSGAEVKKPGSSVKVSCKASGGTFSSYAISWVRQAPGQGLEWMGGIIPIFGTANYAQKFQGRVTITADESTSTAYMELSSLRSEDTAVYYCARGSGELLYASYYYYYMDVWGKGTTVTVSSGGGGSGGGGSGGGGSQSALTQPASVSGSPGQSITISCTGTSSDVGGYNYVSWYQQHPGKAPKLMIYEVSNRPSGVSNRFSGSKSGNTASLTISGLQAEDEADYYCSSYTSSSPLVFGTGTKVTVL
notes: Soluble scFv carried c-myc and His tags; also called CD123 (MB40-F08)

binding result (recombinant human CD123): binds
binding result [1]: binds
B6: scFv MB31-A01 (scFv)
scFv: QIQLVQSGAEVKKPGSSVKVSCKASGGTFSSYAISWVRQAPGQGLEWMGGIIPIFGTANYAQKFQGRVTITADESTSTAYMELSSLRSEDTAVYYCARGSGELLYASYYYYYMDVWGKGTTVTVSSGGGGSGGGGSGGGGSQSALTQPASVSGSPGQSITISCTGTSSDVGGYNYVSWYQQHPGKAPELMIYDVSNRPSGVSNRFSGSKSGNTASLTISGLQAEDEADYYCSSYTSSSTPVVFGGGTKLTVL
notes: Soluble scFv carried c-myc and His tags (detection antibodies); also called CD123 (MB31-A01)

binding result (recombinant human CD123): binds
binding result [1]: binds
B8: scFv MB42-E12 (scFv)
scFv: QVQLVQSGAEVKKPGASVKVSCKASGYTFTSYGISWVRQAPGQGLEWMGWISAYNGNTNYAQKLQGRVTMTTDTSTSTAYMELRSLRSDDTAVYYCARGAYYDFWSSYSWFDPWGQGTLVTVSSGGGGSGGGGSGGGGSSYVLTQPPSVSVAPGKTARITCGGNNIGSKSVHWYQQKPGQAPVLVVYDDSDRPSGIPERFSGSNSGNTATLTISRVEAGDEADYYCQVWDSSSDHVVFGGGTKLTVL
notes: Soluble scFv carried c-myc and His tags; also called CD123 (MB42-E12)

binding result (recombinant human CD123): binds
binding result [1]: binds
B9: scFv MB35-E02 (scFv)
scFv: QVQLVQSGAEVKKPGSSVKVSCKASGGTFSSYAISWVRQAPGQGLEWMGGIIPIFGTANYAQKFQGRVTITADESTSTAYMELSSLRSEDTAVYYCARHGGMATMLPYGAFDIWGQGTMVTVSSGGGGSGGGGSGGGGSDIRLTQSPSSLSASVGDRVTITCRASQGISSYLNWYQQKPGKAPKLLIYAASRLQSGVPSRFSGSGSGTDFTLTISSLQPEDFATYYCQQSYSTSLTFGGGTKVEIK
notes: Soluble scFv carried c-myc and His tags; also called CD123 (MB35-E02)

binding result (recombinant human CD123): binds
binding result [1]: binds
B10: scFv MB42-D03 (scFv)
scFv: QVQLVQSGAEVKKPGASVKVSCKASGYTFTSYGISWVRQAPGQGLEWMGWISAYNGNTNYAQKLQGRVTMTTDTSTSTAYMELRSLRSDDTAVYYCARGAYYDFWSSYSWFDPWGQGTLVTVSSGGGGSGGGGSGGGGSSYVLTQPPSVSVAPGKTARITCGGNSIGSKSVQWYQQKPGQAPVLVIYDDSDRPSGIPERFSGSNSGNTATLTISRVEAGDEADYYCQVWDSSSDVVFGGGTKLTVL
notes: Soluble scFv carried c-myc and His tags; also called CD123 (MB42-D03)
